Assay results as given in PMC5031558 (2016).
Residue numbers refer to the chain shown, from its start.

T1: CYLD USP domain I790D (human, UniProt Q9NQC7 583-956, I790D)
T1 sequence: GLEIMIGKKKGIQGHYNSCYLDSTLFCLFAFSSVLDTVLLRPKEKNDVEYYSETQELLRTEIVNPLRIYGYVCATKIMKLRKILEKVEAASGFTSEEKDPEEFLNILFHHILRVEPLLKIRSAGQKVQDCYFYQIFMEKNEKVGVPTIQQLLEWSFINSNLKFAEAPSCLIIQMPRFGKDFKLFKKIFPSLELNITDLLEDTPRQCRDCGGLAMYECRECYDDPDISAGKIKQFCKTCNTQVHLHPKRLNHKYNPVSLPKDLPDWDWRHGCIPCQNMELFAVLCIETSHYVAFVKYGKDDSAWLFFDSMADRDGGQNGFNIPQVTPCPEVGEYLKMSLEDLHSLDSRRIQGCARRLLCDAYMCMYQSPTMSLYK

T2: CYLD USP domain L622D (human, UniProt Q9NQC7 583-956, L622D)
T2 sequence: T1 sequence with L40D, D208I

B1: CYLD USP domain (aa 583–956) (domain or fragment)
chain: T1 sequence with D208I
B2: SPATA2 PUB domain (aa 1–241) (domain or fragment)
chain: MGKPSSMDTKFKDDLFRKYVQFHESKVDTTTSRQRPGSDECLRVAASTLLSLHKVDPFYRFRLIQFYEVVESSLRSLSSSSLRALHGAFSMLETVGINLFLYPWKKEFRSIKTYTGPFVYYVKSTLLEEDIRAILSCMGYTPELGTAYKLRELVETLQVKMVSFELFLAKVECEQMLEIHSQVKDKGYSELDIVSERKSSAEDVRGCSDALRRRAEGREHLTASMSRVALQKSASERAAKD

Assays:
[1] = molecular target: B2; experiment: SPR; kinetic
[2] = molecular target: B2; experiment: SPR
CYLD USP domain I790D [3] = molecular target: T1, CYLD USP domain I790D; experiment: SPR; kinetic
CYLD USP domain I790D [4] = molecular target: T1, CYLD USP domain I790D; experiment: SPR
[5] = molecular target: CYLD ΔB-box (purified USP domain without the B-box) (human, UniProt Q9NQC7 592-950); experiment: SPR; equilibrium
CYLD USP domain L622D = molecular target: T2, CYLD USP domain L622D; experiment: SPR; equilibrium

Row | Kd [1] | koff [2] | Kd (CYLD USP domain I790D [3]) | koff (CYLD USP domain I790D [4]) | Kd [5] | Kd (CYLD USP domain L622D) | Binder
1 | 84 nM | 0.02 s⁻¹ |  |  |  |  | B1
2 |  |  | 585 nM | 0.086 s⁻¹ | > 100000 nM | > 60000 nM | B2
